In patent publication US20240092836A1:

Molecular target: Recombinant Human CTLA4-Fc chimera (R&D systems) (human) (UniProt P16410)
Experiment: ELISA, signal over SA

Binder	ELISA S/N(SA)
GGCWHPYLPILSRHFCQA (peptide, not shown: large carriers; small tags and cut ends) [C4m#19-5th4w-NN6-63]	16.5
GGCFHPWLPISSLHFCPF (peptide, not shown: large carriers; small tags and cut ends) [C4m#19-5th2w-NNS6-4]	6.3
GGCFHPWLPIASWHFCGR (peptide, not shown: large carriers; small tags and cut ends) [C4m3127-4th-NNS6-48]	13.5
GGCRHPFLPISSIHFCCI (peptide, not shown: large carriers; small tags and cut ends) [C4m#19-5th4w-NN6-58]	18.7
GGCFHPFLPIYSWHFCAR (peptide, not shown: large carriers; small tags and cut ends) [C4m#19-5th4w-NN6-74]	15.1
GGCWHPWLPIVSVHFCGC (peptide, not shown: large carriers; small tags and cut ends) [C4m#19-5th4w-NN6-72]	4.6
GGCAHPVLPIRSLHFCPH (peptide, not shown: large carriers; small tags and cut ends) [C4m#19-5th4w-NN6-86]	19.7
GGCRHPFLPIVSRHFCVA (peptide, not shown: large carriers; small tags and cut ends) [C4m#19-5th2w-NNS6-79]	9.2
GGCSHPFLPIFSLHFCPV (peptide, not shown: large carriers; small tags and cut ends) [C4m#19-5th4w-NN6-38]	16.6
GGCWHPFLPILSWHFCGR (peptide, not shown: large carriers; small tags and cut ends) [C4m#19-5th2w-NNS6-30]	9
GGCRHPFLPIVSFHFCPF (peptide, not shown: large carriers; small tags and cut ends) [C4m#19-5th2w-NNS6-90]	19.7
GGCFHPYLPIWSLHFCRS (peptide, not shown: large carriers; small tags and cut ends) [C4m#19-5th2w-NNS6-86]	7.7
GGCRHPFLPIWSVHFCWR (peptide, not shown: large carriers; small tags and cut ends) [C4m#19-5th2w-NNS6-45]	11
GGCRHPWLPIWSVHFCGV (peptide, not shown: large carriers; small tags and cut ends) [C4m#19-5th4w-NN6-45]	15.8
GGCLHPWLPIRSFHFCGA (peptide, not shown: large carriers; small tags and cut ends) [C4m#19-5th2w-NNS6-53]	11.4
GGCWHPYLPIRSVHFCGR (peptide, not shown: large carriers; small tags and cut ends) [C4m#19-5th2w-NNS6-12]	20.4
GGCLHPYLPIVSSHFCPF (peptide, not shown: large carriers; small tags and cut ends) [C4m3127-4th-NNS6-64]	12.9
GGCRHPVLPIWSSHFCPW (peptide, not shown: large carriers; small tags and cut ends) [C4m3127-4th-NNS6-94]	5.9
GGCWHPYLPILSLHFCQR (peptide, not shown: large carriers; small tags and cut ends) [C4m#19-5th2w-NNS6-6]	10.3
GGCVHPALPIWSFHFCPS (peptide, not shown: large carriers; small tags and cut ends) [C4m#19-5th4w-NN6-46-1]	14.2
GGCRHPYLPIFSAHFCRS (peptide, not shown: large carriers; small tags and cut ends) [C4m#19-5th4w-NN6-1]	16.1
GGCAHPFLPIFSPHFCPF (peptide, not shown: large carriers; small tags and cut ends) [C4m#19-5th2w-NNS6-3]	18.4
GGCWHPFLPISSWHFCGL (peptide, not shown: large carriers; small tags and cut ends) [C4m3127-4th-NNS6-60]	11.9
GGCWHPFLPIKSVHFCCA (peptide, not shown: large carriers; small tags and cut ends) [C4m#19-5th4w-NN6-75]	5.6

Binder	ELISA S/N(SA)
GGCRHPYLPIWSAHFCCR (peptide, not shown: large carriers; small tags and cut ends) [C4m#19-5th4w-NN6-36]	5.7
GGCPHPMLPIFSVHFCPY (peptide, not shown: large carriers; small tags and cut ends) [C4m#19-5th4w-NN6-61]	5.9
GGCPHPWLPIASVHFCPF (peptide, not shown: large carriers; small tags and cut ends) [C4m#19-5th4w-NN6-71]	17.4
GGCWHPFLPIFSAHFCMR (peptide, not shown: large carriers; small tags and cut ends) [C4m3127-4th-NNS6-89]	6.6
GGCCHPFLPIYSVHFCAS (peptide, not shown: large carriers; small tags and cut ends) [C4m#19-5th2w-NNS6-34]	5
GGCWHPFLPIMSFHFCPY (peptide, not shown: large carriers; small tags and cut ends) [C4m#19-5th4w-NN6-30]	16.7
GGCRHPFLPIVSLHFCPF (peptide, not shown: large carriers; small tags and cut ends) [C4m#19-5th2w-NNS6-51]	15.8
GGCRHPWLPIVSYHFCSS (peptide, not shown: large carriers; small tags and cut ends) [C4m#19-5th4w-NN6-90]	21.2
GGCRHPFLPIFSLHFCAR (peptide, not shown: large carriers; small tags and cut ends) [C4m#19-5th2w-NNS6-8]	16.5
GGCWHPSLPIYSPHFCPL (peptide, not shown: large carriers; small tags and cut ends) [C4m3127-4th-NNS6-2]	12.8
GGCKHPFLPISSHHFCPY (peptide, not shown: large carriers; small tags and cut ends) [C4m#19-5th2w-NNS6-25]	21.1
GGCFHPFLPIFSYHFCGL (peptide, not shown: large carriers; small tags and cut ends) [C4m#19-5th2w-NNS6-46]	6.1
GGCWHPHLPIVSSHFCLF (peptide, not shown: large carriers; small tags and cut ends) [C4m#19-5th4w-NN6-2]	18.4
GGCLHPLLPILSVHFCPS (peptide, not shown: large carriers; small tags and cut ends) [C4m#19-5th4w-NN6-83]	12
GGCRHPVLPIVSLHFCPG (peptide, not shown: large carriers; small tags and cut ends) [C4m3127-4th-NNS6-17]	20.4
GGCWHPFLPIVSFHFCPF (peptide, not shown: large carriers; small tags and cut ends) [C4m#19-5th2w-NNS6-84]	6.4
GGCQHPYLPIWSFHFCPF (peptide, not shown: large carriers; small tags and cut ends) [C4m#19-5th4w-NN6-62]	17.2
GGCFHPFLPIRSCHFCAR (peptide, not shown: large carriers; small tags and cut ends) [C4m#19-5th2w-NNS6-27]	9.9
GGCWHPVLPIRSVHFCCR (peptide, not shown: large carriers; small tags and cut ends) [C4m#19-5th4w-NN6-64]	13.7
GGCMHPFLPIRSWHFCSR (peptide, not shown: large carriers; small tags and cut ends) [C4m#19-5th2w-NNS6-74]	7
GGCSHPFLPIWSVHFCGQ (peptide, not shown: large carriers; small tags and cut ends) [C4m3127-4th-NNS6-3]	10.9
GGCWHPYLPIFSVHFCPR (peptide, not shown: large carriers; small tags and cut ends) [C4m3127-4th-NNS6-16]	16.5
GGCRHPFLPIFSKHFCEL (peptide, not shown: large carriers; small tags and cut ends) [C4m3127-4th-NNS6-83]	20.7
GGCRHPFLPIRSPHFCGS (peptide, not shown: large carriers; small tags and cut ends) [C4m3127-4th-NNS6-7]	4.7

Binder	ELISA S/N(SA)
GGCRHPFLPIWSSHFCAA (peptide, not shown: large carriers; small tags and cut ends) [C4m#19-5th2w-NNS6-43]	4.8
GGCAHPALPIWSCHFCPF (peptide, not shown: large carriers; small tags and cut ends) [C4m3127-4th-NNS6-26]	7.1
GGCWHPFLPILSLHFCSR (peptide, not shown: large carriers; small tags and cut ends) [C4m#19-5th4w-NN6-65]	12.5
GGCVHPYLPISSIHFCSM (peptide, not shown: large carriers; small tags and cut ends) [C4m3127-4th-NNS6-72]	20
GGCLHPFLPIYSLHFCPC (peptide, not shown: large carriers; small tags and cut ends) [C4m#19-5th4w-NN6-94]	5
GGCLHPFLPIRSVHFCLR (peptide, not shown: large carriers; small tags and cut ends) [C4m3127-4th-NNS6-79]	12.8
GGCWHPYLPIQSLHFCPF (peptide, not shown: large carriers; small tags and cut ends) [C4m#19-5th4w-NN6-5-1]	14.7
GGCWHPWLPIKSPHFCAL (peptide, not shown: large carriers; small tags and cut ends) [C4m#19-5th2w-NNS6-75]	15.3
GGCIHPFLPIWSIHFCSR (peptide, not shown: large carriers; small tags and cut ends) [C4m#19-5th2w-NNS6-37]	9.4
GGCMHPFLPIKSSHFCRK (peptide, not shown: large carriers; small tags and cut ends) [C4m#19-5th4w-NN6-6]	16.1
GGCAHPYLPIRSVHFCPC (peptide, not shown: large carriers; small tags and cut ends) [C4m#19-5th2w-NNS6-28]	6.3
GGCLHPFLPIVSIHFCSA (peptide, not shown: large carriers; small tags and cut ends) [C4m#19-5th2w-NNS6-26]	5.8
GGCSHPFLPIRSRHFCPF (peptide, not shown: large carriers; small tags and cut ends) [C4m3127-4th-NNS6-12]	15.8
GGCWHPFLPILSLHFCGW (peptide, not shown: large carriers; small tags and cut ends) [C4m#19-6th4w-NN6-5-3]	14.7
GGCWHPFLPIRSVHFCCR (peptide, not shown: large carriers; small tags and cut ends) [C4m#19-5th4w-NN6-14]	16.1
GGCMHPFLPIISQHFCAF (peptide, not shown: large carriers; small tags and cut ends) [C4m#19-5th4w-NN6-89]	8.3
GGCGHPFLPIFSLHFCPR (peptide, not shown: large carriers; small tags and cut ends) [C4m3127-4th-NNS6-80]	12.8
GGCAHPHLPIRSVHFCSF (peptide, not shown: large carriers; small tags and cut ends) [C4m3127-4th-NNS6-66]	4.8
GGCRHPFLPIWSFHFCWG (peptide, not shown: large carriers; small tags and cut ends) [C4m#19-5th2w-NNS6-33]	9.4
GGCWHPCLPILSPHFCPR (peptide, not shown: large carriers; small tags and cut ends) [C4m3127-4th-NNS6-30]	7.5
GGCGHPFLPIFSSHFCPL (peptide, not shown: large carriers; small tags and cut ends) [C4m3127-4th-NNS6-85]	9.1
GGCRHPFLPIVSWHFCAA (peptide, not shown: large carriers; small tags and cut ends) [C4m#19-5th2w-NNS6-70]	5.1
